Results from the RNAGym collection of RNA variant scans (doi:10.1073/pnas.2313332121).
This sample holds only a part of the variants without activity.

B1: TPR 5TU (parent)
chain: GGAUCUUCUCGAUCUAACAAAAAAGACAAAUCUGCCACAAAGCUUGAGAGCAUCUUCGGAUGCAGAGGCGGCAGCCUUCGGUGGCGCGAUAGCGCCAACGUUCUCAACUAUGACACGCAAAACGCGUGCUCCGUUGAAUGGAGUUUAUCAUG

Variants of: B1
Test: polymerase ribozyme fitness, log enrichment relative to wild type (log ratio); higher = more active; in vitro selection for triplet polymerase activity
Outline: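 Only genotypes with ≥10 input reads and ≥1 read per output were kept after Illumina sequencing of input and output libraries. These libraries were PCR-built, transcribed mutants of each subunit of a heterodimeric triplet polymerase ribozyme, each put through one triplicate in vitro selection round with frozen incubation at −7 °C, gel excision of extended constructs, streptavidin-bead capture and RT-PCR. Fitness is a logarithmic ratio of genotype enrichment to wild-type enrichment, from inverse-variance-weighted replicate averages, with the logarithm in base 2.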

Variant	polymerase ribozyme fitness (log ratio)
GGAUCUUCUCGAUCUAACAAAAAAGACAAAUCUGCCACAAAGCUUGAGAGCAUAUUCGGAUGCAGAGGCGGCAGCCUUCGGUGGCGCGAUAGCGCCAACGUUCUCAACUAUGACACGCAAAACGCGCGCUCCGUUGAAUGGAGUUUAUCAUG [C54A U127C]	-2.28
GGAUCUUCUCGAUCUAACAAAAAAGACAAAUCUGCCACAAAGCUUGAGAGCAUGUUCGGGUGCAGAGGCGGCAGCCUUCGAUGGCGCGAUAGGGCCAACGUUCUCAACUAUGACACGUAAAACGCGUGCUCCGUUGAAUGGAGUUUAUCAUG [C54G A60G G81A C93G C118U]	≤ -4.2
GGAUCUUCUCGAUCUAACAAAAAAGACAAAUCUGCCACAAAGCUUGAGAGCAUAUUCGGAUGCAGAGGCGGCAGCCUUCGGUGGCGCGAUAGCGCCAACGUUCUCAACUAUGACACGCAAAACGCGUGCUCCGUUGAAUGGAGGUUAUCAUG [C54A U144G]	-0.801
GGAUCUUCUCGAUCUAACAAAAAAGACAAAUCUGCCACAAAGCUUGAGAGCAUGUUCGGAUGCAGAGGCGGCAGCCUUCGGUGGCGCGAUAGCGCCUACGUUCUCCACUAUGACACGCAAAACGCGUGCUCCGUUGAAUGGAGUUUAUCAUG [C54G A97U A106C]	-2.99
GGAUCUUCUCGAUCUAACAAAAAAGACAAAUCUGCCACAAAGCUUGAGAGCAUAAUCGGUUGCAGAGGCGGCAGCCUUCGGUGGCGCGAUAGCGCCAACGUUCUCAACUAUGACACGCAAAACGCGUGCUCCGUUGAAUGGAGUUUAUCAUG [C54A U55A A60U]	-1.37
GGAUCUUCUCGAUCUAACAAAAAAGACAAAUCUGCCACAAAGCUUGAGAGCAUAUUCGGAUGCAGAGGCGGCAGCCUUCGGUGGCGCGAUAGCGCCAACGUUCACAACUAUGACACGCAAAACGCGUGCUUCGUUGAAUGGAGUUUAUCAUG [C54A U104A C131U]	-2.14
GGAUCUUCUCGAUCUAACAAAAAAGACAAAUCUGCCACAAAGCUUGAGAGCAUAAUAGGAUGCAGAGGCGGCAGCCUUCGGUGGCGCGAUAGCGCCAACGUUCUCAACUAUGACACGCAAAACGCGUGCUCCGUUGAAUGGAGUUUAUCAUG [C54A U55A C57A]	0.336
GGAUCUUCUCGAUCUAACAAAAAAGACAAAUCUGCCACAAAGCUUGAGAGCAUAUUCGGAUGCAGAGGCGGCAGCCUUCGGUGGCGCGAUAGCGCCAACGAUCUCAACUAUGACACGCAAAACGCGUGCUCCGUUGAAUGGAGUUUAUCAUG [C54A U101A]	-2.39
GGAUCUUCUCGAUCUAACAAAAAAGACAAAUCUGCCACAAAGCUUGAGAGCAUAUACGGAUGCAGAGGCGGCAGCCUUCGGUGGCGCGAUAGUGCCAACGUUCUCAACUAUGACACGCAGAACGCUUGCUCCGUUGAAUGGAGUUUAUCAUG [C54A U56A C93U A120G G126U]	-2.38
GGAUCUUCUCGAUCUAACAAAAAAGACAAAUCUGCCACAAAGCUUGAGAGCAUGUUCGGAUGCAGCGGCCGCAGCCUUCGGUGGCGCGAUAGCGCCAACCUUCUCAACUAUGACACGCAAAACGCGUGCUCCGUUGAAUGGAGUUUAUCAUG [C54G A66C G70C G100C]	≤ -4.2
GGAUCUUCUCGAUCUAACAAAAAAGACAAAUCUGCCACAAAGCUUGAGAGCAUGUUAGGAUGCAGAGGCGGCAACCUUCGGUGGCGCGAUCGCGUCAACGUUCUCAACUAUGACACGCAAAACGCGUGCUCAGUUGAAUGGAGUUUAUCAUG [C54G C57A G74A A91C C95U C132A]	≤ -4.2
GGAUCUUCUCGAUCUAACAAAAAAGACAAAUCUGCCACAAAGCUUGAGAGCAUGUUCGGAUGCAGAGGCGGCAGCCUUCGGUGGCGCGAUGGCGCCAACGUUCUCAACUAUGACACGCAAAACGCGUGCUCCGUUGAAUGGAGUUUAUCAUG [C54G A91G]	-4.01
GGAUCUUCUCGAUCUAACAAAAAAGACAAAUCUGCCACAAAGCUUGAGAGCAUGUUCGGAUGCAGAGGCGGCAGCCUUCGGUGGCGCGAUUGCGCCAACGUUCUCAACUAUGACACGCAAAACGCGUGCUCCGUUGAAUGGAGUUUAUCAUG [C54G A91U]	≤ -4.2
GGAUCUUCUCGAUCUAACAAAAAAGACAAAUCUGCCACAAAGCUUGAGAGCAUAUACGGAUGCAGAGUCGGCAGCCUUCGGGCGCGCGAUAGCGCCAACGUUCUCAACUAUGACACGCAAAACGCGUGCUCCCUUGAAUGGAGUUUAUCAUG [C54A U56A G68U U82G G83C G133C]	≤ -4.2
GGAUCUUCUCGAUCUAACAAAAAAGACAAAUCUGCCACAAAGCUUGAGAGCAUGUUCGGAUGCAGAGGCGGCAGCAUUCGGUGGCGCGCUAGCGCCAUCGUUCUCAACUAUGACUCGCAAAACGCGUGCUCCGUUGAAUGGAGUUUAUCAAG [C54G C76A A89C A98U A115U U151A]	≤ -4.2
GGAUCUUCUCGAUCUAACAAAAAAGACAAAUCUGCCACAAAGCUUGAGAGCAUGUUUGGAUGCAGAGGCGGCAGACUUCGGUGGCGCGAUAGCGCCUACGUUCUCAACUAUGACACGCAAAACGCGUGCUCCGUUGAAUGCAGUGUAUCAUG [C54G C57U C75A A97U G141C U145G]	≤ -4.2
GGAUCUUCUCGAUCUAACAAAAAAGACAAAUCUGCCACAAAGCUUGAGAGCAUGUUCGGAUGCAGAGGCGGCAGCGUUCGGUGGCGCGUUAGAGCCAACGUUCUCAACUAUGGCAUGCAAAACGCGUGCUCCGUUGAAUGGAGUUUAUCAUG [C54G C76G A89U C93A A113G C116U]	≤ -4.2
GGAUCUUCUCGAUCUAACAAAAAAGACAAAUCUGCCACAAAGCUUGAGAGCAUAAUCGGAUGCAGAGGCGGCAGCCUUCGGUGGCGCGAUAGCGCCAACGUUGUCAACUAUGACACGCAAAACGCGUGCUCCGUUGAAUGGAGUUUAUCAUG [C54A U55A C103G]	≤ -4.2
GGAUCUUCUCGAUCUAACAAAAAAGACAAAUCUGCCACAAAGCUUGAGAGCAUAUUCGGAAGCAGAGGUGGCAGCCUUCGGUGGCGCGAUAGCGCCAACGUUCUCAACUAUGACACGCAAAACGAGUGCUCCGUUGAAUGGAGUUUAUCAUG [C54A U61A C69U C125A]	≤ -4.2

Variant	polymerase ribozyme fitness (log ratio)
GGAUCUUCUCGAUCUAACAAAAAAGACAAAUCUGCCACAAAGCUUGAGAGCAUGUUCGGAUGCAGAGGCGGUAGCCUUCGGAGGCGCGAGAGCGCCAACGUUCUCAACUAUGACACGCAAAACGCGUGCUCCGUUGAAUGCAGUUUAUCAUG [C54G C72U U82A U90G G141C]	≤ -4.2
GGAUCUUCUCGAUCUAACAAAAAAGACAAAUCUGCCACAAAGCUUGAGAGCAUAUUCGGAUGCAGAGGCGGCAGCCUGCGGUGGCGCGAUAGCGCCAACGGUCUCAGCUAUGACACGAAAAACGCGUGCACCGUUGAAUGGAGUUUAUCAUG [C54A U78G U101G A107G C118A U130A]	≤ -4.2
GGAUCUUCUCGAUCUAACAAAAAAGACAAAUCUGCCACAAAGCUUGAGAGCAUGUUCGGAUGCGGAGGCGGCAGCCUUCGGUGGCGCGAUAGCGCCAACGUUCUCUCCUAUGACACGCAAAACGCGUGCUCCGUUGAAUGGAGUUUAACAUG [C54G A64G A106U A107C U148A]	≤ -4.2
GGAUCUUCUCGAUCUAACAAAAAAGACAAAUCUGCCACAAAGCUUGAGAGCAUACUCGGAUGCAGAGGCGGCAGCCUUAGGUGGCCCGAUAGCGCCAACGUUGUCAACUAUGACACGCAAAACGCGUGCUCCGUUGAAUGGAGUUUCUCAUG [C54A U55C C79A G86C C103G A147C]	≤ -4.2
GGAUCUUCUCGAUCUAACAAAAAAGACAAAUCUGCCACAAAGCUUGAGAGCAUAAACGGAUGCAGAGGCGGCAGCCUUCGGUGGCGCGAUAGCGCAAACGUUCUCAACUAUGACACGCAAAACGCGUGCUCCGUUGAAUGCAGUUUAUCAUG [C54A U55A U56A C96A G141C]	-4.08
GGAUCUUCUCGAUCUAACAAAAAAGACAAAUCUGCCACAAAGCUUGAGAGCAUAUUCGGAUGCAGAGGCGGCAGCCUUCGGUGGCGCGAUAGCGCCAACGUUCUCAACUAUGACACGCAAAACGCGUGCUCCGUUGAAUGGAGUUUACCAUG [C54A U148C]	-3.69
GGAUCUUCUCGAUCUAACAAAAAAGACAAAUCUGCCACAAAGCUUGAGAGCAUAUUCGGAAGCAGAAGCGGCAGACUUCUGUGGCGCGAUAGCGCAAACGUUCUCAACUAUGACACGCAAAACGCGUGCUCCGUUGAAUGGAGUUUAUCAUG [C54A U61A G67A C75A G80U C96A]	≤ -4.2
GGAUCUUCUCGAUCUAACAAAAAAGACAAAUCUGCCACAAAGCUUGAGAGCAUAAUCGGAUGCAGAGGCGGCAGCCUUCGGUGGCGCGAUAGCGCCAACGUUCUCGACUAUGACACGCAAAACGCGUGCUCCGUUGAAUGAACUUUAUGAUG [C54A U55A A106G G141A G143C C149G]	≤ -4.2
GGAUCUUCUCGAUCUAACAAAAAAGACAAAUCUGCCACAAAGCUUGAGAGCAUAUUCGGAUGCAGAGGCGGCAGCCUUCGGUGGCGCGAUAGCGCCAACGGUCUCAACUAUGACACGCAAAACGCGUGCUCCGCUGAAGGGAGAUUAUCAUG [C54A U101G U134C U139G U144A]	-1.85
GGAUCUUCUCGAUCUAACAAAAAAGACAAAUCUGCCACAAAGCUUGAGAGCAUGUUCGGAUGCAGAGGCGGCAGCCUUCGGUGGCGCGAUAGCGCCAACGUUCUCAACUAUGACACGCAAAACGCGUGCUCCGUUGAAUGGAGUUUAUCAUG [C54G]	-1.45
GGAUCUUCUCGAUCUAACAAAAAAGACAAAUCUGCCACAAAGCUUGAGAGCAUAUGCGGAUGCAGAGGCGGCAGCCUUCGGUGGCGCGAUAGCGCCAACGUUCUCAACUUUGACACGCAAAACGCGUGCUCCGUUGAAUGGAGUGUAUCAUG [C54A U56G A110U U145G]	≤ -4.2
GGAUCUUCUCGAUCUAACAAAAAAGACAAAUCUGCCACAAAGCUUGAGAGCAUAGUCGGAUGCAGAGGCGGCAGCCUUCGGUAGCGCGAUAGCGCCAACGUCCUCAAGUAUGACACGCAAAACGCAUGCUCCGUUGAAUGGAGUUUAUCAUG [C54A U55G G83A U102C C108G G126A]	≤ -4.2
GGAUCUUCUCGAUCUAACAAAAAAGACAAAUCUGCCACAAAGCUUGAGAGCAUGUUCGGAUGCAGAGGCGGCAGCCUUCGGUGGUGCGAUAGCGCGAACGUUCUCAACUAUCACACGCAAAACGCGUGCACCGUUGAAUGGGGUUUAUAAUG [C54G C85U C96G G112C U130A A142G C149A]	≤ -4.2
GGAUCUUCUCGAUCUAACAAAAAAGACAAAUCUGCCACAAAGCUUGAGAGCAUAGUCUGAUGCAGAGGCGGCAGCCUUCGCUGGAGCGAUAGCGCCAACGUUCUCAACUAUGACACGCAAAACGCGUGCUCCGUUGAAUGGAGUUUAUCAUG [C54A U55G G58U G81C C85A]	-2.41
GGAUCUUCUCGAUCUAACAAAAAAGACAAAUCUGCCACAAAGCUUGAGAGCAUGUUCGGAUGCAGAGGCGGCAGCCUUCGGUGGAGCGAUAGCGCCAACGUUCUCAACUAUGACACGCAAAACGCGUGCUCCGUUGAAUGGAGUUUAUCAUG [C54G C85A]	-3.85
GGAUCUUCUCGAUCUAACAAAAAAGACAAAUCUGCCACAAAGCUUGAGAGCAUGUUCGGAUGCAGAGGCGGCAGCCUUUGGUGGCGCGAUAGCCCUAACGUUCUCAACUAUGACACGCAAAACGCGUGCUCCGUUGAAUGGAGUUUAUCGUG [C54G C79U G94C C96U A150G]	≤ -4.2
GGAUCUUCUCGAUCUAACAAAAAAGACAAAUCUGCCACAAAGCUUGAGAGCAUAUUCGGAGGCAGAGGCGGCAGCCUUCGGUGGCGCGAUAGCGCCAACGUUCUCAACUAUGACACGCAAAACGCGUGCUCCGUUGAAUGGAGUUUAUCAUG [C54A U61G]	-1.82
GGAUCUUCUCGAUCUAACAAAAAAGACAAAUCUGCCACAAAGCUUGAGAGCAUGUUCGGAUGCAGAGGCGGCAGUCUUCGGUGGCGCGAUAGCGUCAACGUUCUCAACUAUGACACGCAAAACGCGUGCUCCGUUGAAUGGAGUUUCUCAUG [C54G C75U C95U A147C]	-3.31
GGAUCUUCUCGAUCUAACAAAAAAGACAAAUCUGCCACAAAGCUUGAGAGCAUGUUCGGAUGCAGAGGCGGCAGCCUUCGGUGGCGCGAUAGCGCCAACGUUCUCAACUAUGACACGCAAAACGCGUGCUCCGUUGAAUGGUGUUUAUCAUG [C54G A142U]	-1.98
